Substitutions are numbered along the chain they refer to.
T1: recombinant human IL-23R/Fc chimera (R&D Systems) (human, UniProt Q5VWK5 24-353)
T1 construct: bought; also called human IL-23R/Fc fusion protein; rhIL23RFc
T1 sequence (looked up): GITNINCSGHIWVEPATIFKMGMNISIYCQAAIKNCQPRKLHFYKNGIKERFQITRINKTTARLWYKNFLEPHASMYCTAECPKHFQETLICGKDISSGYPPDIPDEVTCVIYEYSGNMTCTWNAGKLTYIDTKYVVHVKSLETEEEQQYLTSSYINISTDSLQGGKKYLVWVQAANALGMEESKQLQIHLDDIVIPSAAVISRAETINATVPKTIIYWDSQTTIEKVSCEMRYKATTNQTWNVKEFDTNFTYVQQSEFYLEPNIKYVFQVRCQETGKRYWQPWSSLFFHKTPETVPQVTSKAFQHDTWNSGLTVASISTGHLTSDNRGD

B1: 101-51-1A3 ATRIMER (designed binder)
chain: EPPTQKPKKIVNAKKDVVNTKMFEELKSRLDTLAQEVALLKEQQALQTVCLKGTKVHMKCFLAFTQTKTFHEASEDCISRGGTLSTPQTGSENDALYEYLRQSVGNEAEIWLGLNGSALTNTWVDMTGARIAYKNWEHQPVYQPGGGWGVFGENCAVLSGAANGKWFDKRCRDQLPYICQFGIV
modifications: ATRIMER is a homotrimer; one protomer is given.
notes: not shown: C-terminal purification tag: Myc/His6 (pANA4) or HA-StrepII (pANA10)
B2: 101-51-1A6 ATRIMER (designed binder)
chain: B1 chain with H138N, Q139N, P140L, V141S, Y142A, G145R, W148F, V150Y
modifications: ATRIMER is a homotrimer; one protomer is given.
notes: as for B1
B3: 101-51-1A8 ATRIMER (designed binder)
chain: B1 chain with H138R, Q139T, V141P, Y142W, G145E, W148F, V150Y
modifications: ATRIMER is a homotrimer; one protomer is given.
notes: as for B1
B4: 101-51-1A10 ATRIMER (designed binder)
chain: B1 chain with Q139P, P140L, V141P, Y142P, G145S, W148F, V150Y
modifications: ATRIMER is a homotrimer; one protomer is given.
notes: as for B1
B5: 101-54-4A12 ATRIMER (designed binder)
chain: EPPTQKPKKIVNAKKDVVNTKMFEELKSRLDTLAQEVALLKEQQALQTVCLKGTKVHMKCFLAFTQTKTFHEASEDCISRGGTLSTPQTGSENDALYEYLRQSVGNEAEIWLGLNGSRRSGVWVDMTGARIAYKNWEPPGPAHPQGGFGVFGENCAVLSGAANGKWFDKRCRDQLPYICQFGIV
B6: 101-54-4B3 ATRIMER (designed binder)
chain: B1 chain with H138L, Q139P, V141P, Y142G, Q143H, G145Q, W148F
B7: 101-54-4B6 ATRIMER (designed binder)
chain: B5 chain with R118A, R119L, S120T, G121N, V122T, A142H, Q145M
B8: 101-80-5E8 ATRIMER (designed binder)
chain: B1 chain with H138P, Q139P, P140E, V141P, Y142L, Q143H, G145M, W148F
B9: 105-08-1A4 ATRIMER (designed binder)
chain: B1 chain with L119V, H138T, Q139E, P140I, V141T, Y142A, G145D, W148F, V150Y
B10: 105-08-1A7 ATRIMER (designed binder)
chain: B1 chain with A118V, L119R, H138T, Q139E, P140I, V141T, Y142A, G145D, W148F, V150Y
modifications: Homotrimer of the given chain (ATRIMER complex).
B11: 105-08-1A8 ATRIMER (designed binder)
chain: B1 chain with A118P, L119R, H138T, Q139E, P140I, V141T, Y142A, G145D, W148F
notes: not shown: C-terminal tag: Myc/His6 (pANA4) or HA-StrepII (pANA10); A Ser left at the ompA junction may also sit at the N-terminus
B12: 105-08-1A10 ATRIMER (designed binder)
chain: B1 chain with A118S, L119I, N121D, H138T, Q139E, P140I, V141T, Y142A, G145D, V150Y
modifications: Forms a homotrimer (ATRIMER) through the tetranectin coiled coil; one protomer is given.
notes: not shown: C-terminal tag
B13: 105-08-1B1 ATRIMER (designed binder)
chain: EPPTQKPKKIVNAKKDVVNTKMFEELKSRLDTLAQEVALLKEQQALQTVCLKGTKVHMKCFLAFTQTKTFHEASEDCISRGGTLSTPQTGSENDALYEYLRQSVGNEAEIWLGLNGSPRTQTWVDMTGARIAYKNWETEITAQPDGGFGYFGENCAVLSGAANGKWFDKRCRDQLPYICQFGIV
modifications: Homotrimer of the given chain (ATRIMER complex).
B14: 105-08-1B7 ATRIMER (designed binder)
chain: B13 chain with Q121D
modifications: Forms a homotrimer (ATRIMER) through the tetranectin coiled coil; one protomer is given.
notes: not shown: C-terminal tag
B15: 105-08-1B10 ATRIMER (designed binder)
chain: B13 chain with P118R, R119H, Q121D
B16: 105-08-1C2 ATRIMER (designed binder)
chain: B13 chain with P118R, R119A, Q121D
modifications: Forms a homotrimer (ATRIMER) through the tetranectin coiled coil; one protomer is given.
notes: not shown: C-terminal tag
B17: 105-08-1C3 ATRIMER (designed binder)
chain: B13 chain with P118Q, R119L, Q121D, F148W
B18: 105-08-1C4 ATRIMER (designed binder)
chain: B13 chain with P118T, R119L, Q121D, F148W
modifications: Homotrimer of the given chain (ATRIMER complex).
B19: 105-08-1C6 ATRIMER (designed binder)
chain: B13 chain with P118A, R119L, Q121D
B20: 105-08-1C9 ATRIMER (designed binder)
chain: B13 chain with P118T, R119L, Q121D
notes: not shown: C-terminal tag: His/Myc (pANA4) or HA-StrepII (pANA10)
B21: 105-08-1C10 ATRIMER (designed binder)
chain: B13 chain with P118S, R119V, Q121N, F148W
B22: 105-08-1C11 ATRIMER (designed binder)
chain: B13 chain with P118S, Q121D
notes: as for B20
B23: 105-08-1D1 ATRIMER (designed binder)
chain: B13 chain with P118A, R119L, Q121D, F148W
B24: 105-08-1D2 ATRIMER (designed binder)
chain: B13 chain with R119V, Q121D
modifications: Forms a homotrimer (ATRIMER) through the tetranectin coiled coil; one protomer is given.
notes: not shown: C-terminal tag
B25: 105-08-1D3 ATRIMER (designed binder)
chain: B13 chain with P118K, R119V, Q121E
notes: as for B1
B26: 105-08-1D10 ATRIMER (designed binder)
chain: B13 chain with P118A, Q121G, F148W
notes: as for B20
B27: 105-08-1D12 ATRIMER (designed binder)
chain: B13 chain with P118V, R119L, Q121D
B28: 105-08-1G2 ATRIMER (designed binder)
chain: B13 chain with P118S, R119K, Q121N, F148W
notes: as for B20
B29: 105-08-1G9 ATRIMER (designed binder)
chain: B13 chain with R119K, Q121D
notes: as for B20
B30: 105-08-1G12 ATRIMER (designed binder)
chain: B13 chain with P118L, Q121G, F148W
B31: 105-08-2A1 ATRIMER (designed binder)
chain: B13 chain with P118M, Q121D, F148W
B32: 105-08-2B3 ATRIMER (designed binder)
chain: B13 chain with P118A, R119I, Q121N, F148W
B33: 105-08-2C1 ATRIMER (designed binder)
chain: B13 chain with P118S, R119L, Q121D, F148W
B34: 105-08-2C4 ATRIMER (designed binder)
chain: B13 chain with P118L, R119L, Q121N
modifications: Homotrimer of the given chain (ATRIMER complex).
B35: 105-08-2C6 ATRIMER (designed binder)
chain: B13 chain with P118Q, Q121D, F148W
B36: 105-08-2C8 ATRIMER (designed binder)
chain: B13 chain with P118W, R119L, Q121D, F148W
B37: 105-08-2C9 ATRIMER (designed binder)
chain: B13 chain with P118T, R119L, Q121N, F148W
notes: as for B20
B38: 105-08-2C10 ATRIMER (designed binder)
chain: B13 chain with P118L, R119L, Q121D, Y150V
notes: as for B1
B39: 105-08-2C11 ATRIMER (designed binder)
chain: B13 chain with P118L, R119K, F148W
B40: 105-08-2C12 ATRIMER (designed binder)
chain: B13 chain with P118Q, Q121D
modifications: Homotrimer of the given chain (ATRIMER complex).
B41: 105-08-2D2 ATRIMER (designed binder)
chain: B13 chain with P118A, Q121G
modifications: Forms a homotrimer (ATRIMER) through the tetranectin coiled coil; one protomer is given.
notes: not shown: C-terminal tag
B42: 105-08-2E12 ATRIMER (designed binder)
chain: B13 chain with P118G, R119L, Q121D, F148W
B43: 105-08-2F6 ATRIMER (designed binder)
chain: B13 chain with P118A, R119Y, Q121N
notes: as for B20
B44: 105-08-2G1 ATRIMER (designed binder)
chain: B13 chain with R119K, Q121H
B45: 105-08-2G2 ATRIMER (designed binder)
chain: B13 chain with P118A, R119I, Q121D, F148W
B46: 105-08-2G4 ATRIMER (designed binder)
chain: B13 chain with Q121G
notes: as for B20
B47: 105-08-2G6 ATRIMER (designed binder)
chain: B13 chain with P118L, R119L, Q121D, F148W
notes: as for B20
B48: 105-08-2G7 ATRIMER (designed binder)
chain: B13 chain with R119K, Q121G
notes: as for B20
B49: 105-08-2G10 ATRIMER (designed binder)
chain: B13 chain with R119L, Q121D
B50: 105-08-2H2 ATRIMER (designed binder)
chain: B13 chain with R119T, Q121D, F148W

biological target: T1, recombinant human IL-23R/Fc chimera …; assay: competition ELISA against IL-23
Experimental: Assays were performed generally as follows. Individual wells in Immulon HB2 plates were incubated overnight at 4° C. with 100 μL PBS containing 100 ng of an anti-human IgG Fc (R&D MAB 110 clone 97924). Plates were washed five times with PBS/0.05% Tween 20, and wells were incubated for 1.5 h at RT with 100 μL each of PBS containing 50 ng of recombinant human IL-23R/Fc. […] Competitor was included at a final concentration of 1 μg/mL. After incubation, plates were washed as described and wells were incubated for 40 min at RT with 100 μL each of PBS containing a 1:5000 dilution of streptavidin-HRP conjugate (Pierce catalog no. 21130). After washing, wells were incubated with 100 μL each of TMB (BioFX Lab catalog no. TMBH-1000-0) for up to 30 min at RT. Reactions were stopped with an equal volume of 0.2 M sulfuric acid.

Row | Binder | Ratio IC50 to 056-53.H4E IC50 [ratio]
1 | B1 | 1.6
2 | B2 | 2.6
3 | B3 | 3.7
4 | B4 | 8.7
5 | B5 | 1.1
6 | B6 | 1
7 | B7 | 0.3
8 | B8 | 0.6
9 | B9 | 1.6
10 | B10 | 2.9
11 | B11 | 1.6
12 | B12 | 4.3
13 | B13 | 3.3
14 | B14 | 4.1
15 | B15 | 4.7
16 | B16 | 4.1
17 | B17 | 3.6
18 | B18 | 3.3
19 | B19 | 2
20 | B20 | 7.4
21 | B21 | 5
22 | B22 | 2.8
23 | B23 | 3.6
24 | B24 | 4.3
25 | B25 | 0.4

Row | Binder | Ratio IC50 to 056-53.H4E IC50 [ratio]
26 | B26 | 5.5
27 | B27 | 4.6
28 | B28 | 5.5
29 | B29 | 2.4
30 | B30 | 13.2
31 | B31 | 5
32 | B32 | 3.4
33 | B33 | 3.6
34 | B34 | 2.9
35 | B35 | 3.6
36 | B36 | 8.4
37 | B37 | 5.3
38 | B38 | 0.9
39 | B39 | 9.1
40 | B40 | 3.3
41 | B41 | 4.1
42 | B42 | 9.1
43 | B43 | 2.4
44 | B44 | 2.2
45 | B45 | 3.8
46 | B46 | 2.5
47 | B47 | 5.2
48 | B48 | 2.5
49 | B49 | 1.8
50 | B50 | 4

From patent publication US20110086770A1 (ANAPHORE, published 2011)
